# Test results published in patent US10512676B2, “Formulations comprising recombinant acid alpha-glucosidase” (Amicus Therapeutics, Inc., priority 2016, dated 2019).
# How the values were obtained:
# whole human blood = test: Hemolysis in whole human blood; format: cell-based; conditions: for percent hemolysis / OD540 With Blood / % Hemolysis: 1 hour at 37° C.; for % Hemolysis: water = 100%
# Procedure: A series of dilutions of blood (1:2, 1:3, 1:4, 1:5, and 1:10) from a human donor were prepared in saline. […] Four types of samples were tested: the test article, placebo, positive control and negative control. […] The placebo was the same as the test article except there was no ATB200 rhGAA.
# Samples were incubated without agitation for 1 hour at 37° C. After incubation, the tubes were centrifuged for 10 minutes at approximately 100× g at room temperature. The amount of hemoglobin in the supernatant of each sample was analyzed spectrophotometrically at 540 nm.
# The percent hemolysis for the test article was determined by the formula: […]
# The percent hemolysis of water plus blood is 100%. Saline was the negative control. Hemolysis less than or equal to 10% was considered insignificant. The percent hemolysis was calculated for each concentration of the test article and for the placebo.
# [1] = system: normal and Pompe fibroblast cell lines; test: Cellular uptake of rhGAA in normal and Pompe fibroblast cell lines; format: cell-based
# Procedure: The relative cellular uptake of ATB200 and Lumizyme® rhGAA were compared using normal and Pompe fibroblast cell lines. […] After 16-hr incubation, external rhGAA was inactivated with TRIS base and cells were washed 3-times with PBS prior to harvest. Internalized GAA measured by 4MU-α-Glucoside hydrolysis and was graphed relative to total cellular protein and the results appear in FIGS. 11A-B.
# Gaa KO mice = test: Muscle function in Gaa-knockout mice, 12 biweekly administrations (grip strength, wire hang); format: in vivo, mouse; conditions: 6 months, with or without miglustat
# Description: In FIG. 18A, * indicates statistically significant compared to Lumizyme® alone (p<0.05, 2-sided t-test). In FIGS. 19A-19G, * indicates statistically significant compared to Lumizyme® alone (p<0.05, multiple comparison using Dunnett's method under one-way ANOVA analysis).
substance,measurement,setting,value
ATB200: recombinant human acid α-glucosidase expressed in CHO cells with increased content of M6P-bearing N-glycans,percent hemolysis,whole human blood; 300 μg/ml,−0.1%
same,percent hemolysis,whole human blood; 600 μg/ml,−1.5%
same,percent hemolysis,whole human blood; 1000 μg/ml,−1.5%
same,OD540 Without Blood,whole human blood; Concentration 300 μg/mL,0.001
same,OD540 With Blood,whole human blood; Concentration 300 μg/mL,0.016
same,% Hemolysis,whole human blood; Concentration 300 μg/mL,−0.10%
same,OD540 Without Blood,whole human blood; Concentration 600 μg/mL,0.002
same,OD540 With Blood,whole human blood; Concentration 600 μg/mL,0.003
same,% Hemolysis,whole human blood; Concentration 600 μg/mL,−1.52%
same,OD540 Without Blood,whole human blood; Concentration 1000 μg/mL,0.003
same,OD540 With Blood,whole human blood; Concentration 1000 μg/mL,0.004
same,% Hemolysis,whole human blood; Concentration 1000 μg/mL,−1.52%
same,concentration that saturates cellular receptors,[1]; 16-hr incubation,about 20 nM
same,internalization into normal and Pompe fibroblast cells,[1]; versus Lumizyme,internalized to a greater degree than conventional Lumizyme® rhGAA
same,intracellular accumulation of dystrophin,Gaa KO mice,lowered intracellular accumulation of dystrophin in Gaa KO mice
